{"source": "paper PMC2665219", "about": "(Nucleic Acids Research, 2009)", "binders": {"B1": {"name": "b-WT (dsDNA)", "DNA 1": "TTGTAATGAGTAGTGCATTTGCAATGGAGAGATTTTGGGGAGTTGTTTAAAATTACATTTGCGTTTTGTTAAAATGTAACAGCTGAATGTAACAAAATTATATATTTAAATCTTTGAAATATTGC", "DNA 2": "GCAATATTTCAAAGATTTAAATATATAATTTTGTTACATTCAGCTGTTACATTTTAACAAAACGCAAATGTAATTTTAAACAACTCCCCAAAATCTCTCCATTGCAAATGCACTACTCATTACAA"}, "B2": {"name": "b-C20 (dsDNA)", "DNA 1": "B1 DNA 1 with T75C, G76A, T77C, C93A", "DNA 2": "B1 DNA 2 with G33T, A49G, C50T, A51G"}, "B3": {"name": "b-C40 (dsDNA)", "DNA 1": "B1 DNA 1 with T75C, G76A, T77C, A91G", "DNA 2": "B1 DNA 2 with T35C, A49G, C50T, A51G"}, "B4": {"name": "b-C50 (dsDNA)", "DNA 1": "B1 DNA 1 with T75C, G76A, T77C, A92T", "DNA 2": "B1 DNA 2 with T34A, A49G, C50T, A51G"}, "B5": {"name": "b-C2+3 (dsDNA)", "DNA 1": "B1 DNA 1 with A72C, T75C, G76A, T77C", "DNA 2": "B1 DNA 2 with A49G, C50T, A51G, T54G"}, "B6": {"name": "b-C1/2+3 (dsDNA)", "DNA 1": "B1 DNA 1 with A72C, T75C, G76A, T77C, T88C, G89A, T90C", "DNA 2": "B1 DNA 2 with A36G, C37T, A38G, A49G, C50T, A51G, T54G"}, "B7": {"name": "b-C30 (dsDNA)", "DNA 1": "B1 DNA 1 with T75C, G76A, T77C, A94T", "DNA 2": "B1 DNA 2 with T32A, A49G, C50T, A51G"}, "B8": {"name": "EbfC K16A mutant (natural protein, Borrelia burgdorferi strain B31, UniProt O51418 1-99, looked up)", "chain": "MAVNPLDFLKNMSSVANNIDNIKKEISKITVCGKAGSNIVTIEMDGEFNVKKVSINKEFFDDLDNDAFEQMIKSALNDAVSKVKEEIKLKTMGVLPFGM"}, "B9": {"name": "EbfC K23A mutant (natural protein, Borrelia burgdorferi strain B31, UniProt O51418 1-99, looked up)", "chain": "B8 chain with A16K, K23A"}, "B10": {"name": "EbfC E85A mutant (natural protein, Borrelia burgdorferi strain B31, UniProt O51418 1-99, looked up)", "chain": "B8 chain with A16K, E85A"}, "B11": {"name": "EbfC K82A mutant (natural protein, Borrelia burgdorferi strain B31, UniProt O51418 1-99, looked up)", "chain": "B8 chain with A16K, K82A"}, "B12": {"name": "EbfC D78A mutant (natural protein, Borrelia burgdorferi strain B31, UniProt O51418 1-99, looked up)", "chain": "B8 chain with A16K, D78A"}, "B13": {"name": "EbfC K84A mutant (natural protein, Borrelia burgdorferi strain B31, UniProt O51418 1-99, looked up)", "chain": "B8 chain with A16K, K84A"}, "B14": {"name": "EbfC K88A mutant (natural protein, Borrelia burgdorferi strain B31, UniProt O51418 1-99, looked up)", "chain": "B8 chain with A16K, K88A"}, "B15": {"name": "EbfC D20A mutant (natural protein, Borrelia burgdorferi strain B31, UniProt O51418 1-99, looked up)", "chain": "B8 chain with A16K, D20A"}}, "key": {"EbfC [1]": {"target": "T1, EbfC (Borrelia burgdorferi, UniProt O51418 1-99)", "T1 sequence": "B8 chain with A16K", "test": "EMSA"}, "EbfC K16A": {"target": "T2, EbfC K16A (Borrelia burgdorferi, UniProt O51418 1-99, K16A)", "T2 sequence": "B8 chain", "test": "EMSA"}, "EbfC D20A": {"target": "T3, EbfC D20A (Borrelia burgdorferi, UniProt O51418 1-99, D20A)", "T3 sequence": "B8 chain with A16K, D20A", "test": "EMSA"}, "EbfC E85A": {"target": "T4, EbfC E85A (Borrelia burgdorferi, UniProt O51418 1-99, E85A)", "T4 sequence": "B8 chain with A16K, E85A", "test": "EMSA"}, "EbfC K23A": {"target": "T5, EbfC K23A (Borrelia burgdorferi, UniProt O51418 1-99, K23A)", "T5 sequence": "B8 chain with A16K, K23A", "test": "EMSA"}, "EbfC K82A": {"target": "T6, EbfC K82A (Borrelia burgdorferi, UniProt O51418 1-99, K82A)", "T6 sequence": "B8 chain with A16K, K82A", "test": "EMSA"}, "EbfC K84A": {"target": "T7, EbfC K84A (Borrelia burgdorferi, UniProt O51418 1-99, K84A)", "T7 sequence": "B8 chain with A16K, K84A", "test": "EMSA"}, "EbfC K88A": {"target": "T8, EbfC K88A (Borrelia burgdorferi, UniProt O51418 1-99, K88A)", "T8 sequence": "B8 chain with A16K, K88A", "test": "EMSA"}, "EbfC D78A": {"target": "T9, EbfC D78A (Borrelia burgdorferi, UniProt O51418 1-99, D78A)", "T9 sequence": "B8 chain with A16K, D78A", "test": "EMSA"}, "EbfC N77A": {"target": "T10, EbfC N77A (Borrelia burgdorferi, UniProt O51418 1-99, N77A)", "T10 sequence": "B8 chain with A16K, N77A", "test": "EMSA"}, "EbfC [2]": {"target": "T1, EbfC", "test": "EMSA", "remark": "listed apart in the source"}, "EbfC [3]": {"target": "T1, EbfC", "test": "EMSA", "remark": "listed apart in the source"}, "EbfC [4]": {"target": "T1, EbfC", "test": "EMSA", "remark": "listed apart in the source"}, "EbfC [5]": {"target": "T1, EbfC", "test": "EMSA", "remark": "listed apart in the source"}, "SEC": {"target": "the molecule itself", "test": "SEC"}}, "note": "Substitutions are numbered along the chain they refer to. Numbers in names are those of the source. Where two headings read alike, the source gives them in different places."}
{"binder": "B1", "values": [{"measurement": "Kd", "setting": "EbfC [1]", "value": 313, "unit": "nM"}, {"measurement": "binding result", "setting": "EbfC K16A", "value": "no binding"}, {"measurement": "binding result", "setting": "EbfC D20A", "value": "no binding"}, {"measurement": "binding result", "setting": "EbfC E85A", "value": "no binding"}, {"measurement": "binding result", "setting": "EbfC K23A", "value": "no binding"}, {"measurement": "binding result", "setting": "EbfC K82A", "value": "no binding"}, {"measurement": "binding result", "setting": "EbfC K84A", "value": "no binding"}, {"measurement": "binding result", "setting": "EbfC K88A", "value": "no binding"}, {"measurement": "binding result", "setting": "EbfC D78A", "value": "no binding"}, {"measurement": "binding result", "setting": "EbfC N77A", "value": "no binding"}, {"measurement": "Kd", "setting": "EbfC [2]", "value": "388 ± 108", "unit": "nM"}]}
{"binder": "B2", "values": [{"measurement": "binding result", "setting": "EbfC [3]", "value": "no binding"}]}
{"binder": "B3", "values": [{"measurement": "binding result", "setting": "EbfC [4]", "value": "binds"}]}
{"binder": "B4", "values": [{"measurement": "binding result", "setting": "EbfC [3]", "value": "no binding"}]}
{"binder": "B5", "values": [{"measurement": "binding result", "setting": "EbfC [5]", "value": "binds"}]}
{"binder": "B6", "values": [{"measurement": "binding result", "setting": "EbfC [5]", "value": "binds"}]}
{"binder": "B7", "values": [{"measurement": "binding result", "setting": "EbfC [4]", "value": "binds"}]}
{"binder": "B8", "values": [{"measurement": "stoichiometry N", "setting": "SEC", "value": 2}]}
{"binder": "B9", "values": [{"measurement": "stoichiometry N", "setting": "SEC", "value": 2}]}
{"binder": "B10", "values": [{"measurement": "stoichiometry N", "setting": "SEC", "value": 2}]}
{"binder": "B11", "values": [{"measurement": "stoichiometry N", "setting": "SEC", "value": 2}]}
{"binder": "B12", "values": [{"measurement": "stoichiometry N", "setting": "SEC", "value": 2}]}
{"binder": "B13", "values": [{"measurement": "stoichiometry N", "setting": "SEC", "value": 2}]}
{"binder": "B14", "values": [{"measurement": "stoichiometry N", "setting": "SEC", "value": 2}]}
{"binder": "B15", "values": [{"measurement": "stoichiometry N", "setting": "SEC", "value": 2}]}
